Measurements reported in US20240376170A1 (BRIGHT PEAK THERAPEUTICS, published 2024).
Bridges are numbered along the chain shown (N, C = ends). Primed or numbered codes have the meaning given here. [ ]: non-standard residue; d: D form. Ygp(4) = Tyr with amino-capped PEG8 (O-(8x polyethylene glycol-amino)-tyrosine); Yn3(4) = Tyr with azide-capped PEG9 (O-(9x polyethylene glycol-azido)-tyrosine); Ygp = O-(8x polyethylene glycol-amino)-tyrosine (Tyr, amino-capped PEG8); Yn3 = O-(9x polyethylene glycol-azido)-tyrosine (Tyr, azide-capped PEG9); PEG9′ = 9x polyethylene glycol; hSer = N[C@@H](CCO)C(=O)O; Nle = CCCC[C@H](N)C(=O)O

T1: IL-2 receptor βγ complex (human, UniProt P14784 27-551; P31785 23-369)
T1 sequence (looked up) 1: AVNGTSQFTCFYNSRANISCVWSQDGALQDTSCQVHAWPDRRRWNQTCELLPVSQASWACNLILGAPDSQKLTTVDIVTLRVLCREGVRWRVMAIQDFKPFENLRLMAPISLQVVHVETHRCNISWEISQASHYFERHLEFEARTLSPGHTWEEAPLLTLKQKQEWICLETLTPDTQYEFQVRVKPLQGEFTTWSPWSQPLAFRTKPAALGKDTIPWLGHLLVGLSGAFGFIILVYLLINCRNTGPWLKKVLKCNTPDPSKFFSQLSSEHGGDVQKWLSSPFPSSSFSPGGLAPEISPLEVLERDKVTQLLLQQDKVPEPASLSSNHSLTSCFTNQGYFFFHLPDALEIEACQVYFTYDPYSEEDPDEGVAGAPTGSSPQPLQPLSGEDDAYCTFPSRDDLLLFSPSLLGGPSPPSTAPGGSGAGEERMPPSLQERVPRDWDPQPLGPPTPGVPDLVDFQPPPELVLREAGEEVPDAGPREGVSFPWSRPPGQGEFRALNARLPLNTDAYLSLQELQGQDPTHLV
T1 sequence (looked up) 2: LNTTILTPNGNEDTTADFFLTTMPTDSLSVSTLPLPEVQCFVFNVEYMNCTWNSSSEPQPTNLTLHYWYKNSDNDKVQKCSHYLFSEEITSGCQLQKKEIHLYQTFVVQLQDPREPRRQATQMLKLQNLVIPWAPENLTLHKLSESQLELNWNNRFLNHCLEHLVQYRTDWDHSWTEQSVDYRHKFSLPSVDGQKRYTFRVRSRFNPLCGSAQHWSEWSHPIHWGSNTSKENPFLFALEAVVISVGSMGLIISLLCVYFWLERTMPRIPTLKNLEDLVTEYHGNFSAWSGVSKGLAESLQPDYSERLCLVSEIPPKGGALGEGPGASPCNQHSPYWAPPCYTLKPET

B1: CMP-163, MMP2 cleaved molecule (ligand)
chain: APTSSSTKKTQLQLEHLLLDLQKILNGINNYKNPKLTR[Nle]L[hSer][Yn3(4)]KF[Ygp(4)][Nle]PKKATELKHLQCLEEELKPLEEVL[hSer]LAQSKNFHLRPRDLISNINVIVLELKGSETTF[hSer]CEYADETATIVEFLNRWITFSQSIISTLT
modifications: not fully specified; ends and bridges not checked
B2: CMP-164 (ligand)
chain: APTSSSTKKTQLQLEHLLLDLQKILNGINNYKNPKLTR[Nle]L[hSer][Yn3]KF[Ygp][Nle]PKKATELKHLQCLEEELKPLEEVL[hSer]LAQSKNFHLRPRDLISNINVIVLELKGSETTF[hSer]CEYADETATIVEFLNRWITFSQSIISTLT
modifications: bridge N-23; not fully specified (bridges); ends not checked; also: sequence of the cleavable peptide in the bridge not given here
B3: CMP-164, MMP2 cleaved molecule (ligand)
chain: APTSSSTKKTQLQLEHLLLDLQKILNGINNYKNPKLTR[Nle]L[hSer][Yn3]KF[Ygp][Nle]PKKATELKHLQCLEEELKPLEEVL[hSer]LAQSKNFHLRPRDLISNINVIVLELKGSETTF[hSer]CEYADETATIVEFLNRWITFSQSIISTLT
modifications: ends and bridges not checked; also: MMP2 cleaved, cleavage site and linker fragments on N-terminus and Lys23 side chain not given here
B4: CMP-165 (ligand)
chain: APTSSSTKKTQLQLEHLLLDLQKILNGINNYKNPKLTR[Nle]L[hSer][Yn3]KF[Ygp][Nle]PKKATELKHLQCLEEELKPLEEVL[hSer]LAQSKNFHLRPRDLISNINVIVLELKGSETTF[hSer]CEYADETATIVEFLNRWITFSQSIISTLT
modifications: bridge N-23; not fully specified (bridges); ends not checked; also: sequence of the cleavable peptide in the bridge not given here
B5: CMP-165, MMP2 cleaved molecule (ligand)
chain: APTSSSTKKTQLQLEHLLLDLQKILNGINNYKNPKLTR[Nle]L[hSer][Yn3]KF[Ygp][Nle]PKKATELKHLQCLEEELKPLEEVL[hSer]LAQSKNFHLRPRDLISNINVIVLELKGSETTF[hSer]CEYADETATIVEFLNRWITFSQSIISTLT
modifications: ends and bridges not checked; also: MMP2 cleaved, cleavage site and linker fragments on N-terminus and Lys23 side chain not given here
B6: CMP-166, MMP2 cleaved molecule (ligand)
chain: APTSSSTKKTQLQLEHLLLDLQKILNGINNYKNPKLTR[Nle]L[hSer][Yn3]KF[Ygp][Nle]PKKATELKHLQCLEEELKPLEEVL[hSer]LAQSKNFHLRPRDLISNINVIVLELKGSETTF[hSer]CEYADETATIVEFLNRWITFSQSIISTLT
modifications: ends and bridges not checked; also: MMP2 cleaved, cleavage site and linker fragments on N-terminus and Lys23 side chain not given here
B7: CMP-167 (ligand)
chain: APTSSSTKKTQLQLEHLLLDLQKILNGINNYKNPKLTR[Nle]L[hSer][Yn3]KF[Ygp][Nle]PKKATELKHLQCLEEELKPLEEVL[hSer]LAQSKNFHLRPRDLISNINVIVLELKGSETTF[hSer]CEYADETATIVEFLNRWITFSQSIISTLT
modifications: bridge N-23; not fully specified (bridges); ends not checked; also: sequence of the cleavable peptide in the bridge not given here
B8: CMP-167, MMP2 cleaved molecule (ligand)
chain: APTSSSTKKTQLQLEHLLLDLQKILNGINNYKNPKLTR[Nle]L[hSer][Yn3]KF[Ygp][Nle]PKKATELKHLQCLEEELKPLEEVL[hSer]LAQSKNFHLRPRDLISNINVIVLELKGSETTF[hSer]CEYADETATIVEFLNRWITFSQSIISTLT
modifications: ends and bridges not checked; also: MMP2 cleaved, cleavage site and linker fragments on N-terminus and Lys23 side chain not given here
B9: CMP-169 (ligand)
chain: APTSSSTKKTQLQLEHLLLDLQEILNGINNYKNPKLTR[Nle]L[hSer][Yn3(4)]KF[Ygp(4)][Nle]PKKATELKHLQCLEEELKPLEEVL[hSer]LAQSKNFHLRPRDLISNINVIVLELKGSETTF[hSer]CEYADETATIVEFLNRWITFSQSIISTLT
modifications: bridge 9-23; not fully specified (bridges); ends not checked; also: linker peptide sequence not given here
B10: CMP-169, MMP2 cleaved molecule (ligand)
chain: APTSSSTKKTQLQLEHLLLDLQEILNGINNYKNPKLTR[Nle]L[hSer][Yn3(4)]KF[Ygp(4)][Nle]PKKATELKHLQCLEEELKPLEEVL[hSer]LAQSKNFHLRPRDLISNINVIVLELKGSETTF[hSer]CEYADETATIVEFLNRWITFSQSIISTLT
modifications: not fully specified; ends and bridges not checked; also: cleaved by MMP2, product not given here, Lys9 side chain linked to another sequence via PEG4, Glu23 side chain linked to another sequence
B11: CMP-301 (ligand)
chain: GPLGLAG[PEG9′]APTSSSTKKTQLQLEHLLLDLQEILNGINNYKNPKLTR[Nle]L[hSer][Yn3(4)]KF[Ygp(4)][Nle]PKKATELKHLQCLEEELKPLEEVL[hSer]LAQSKNFHLRPRDLISNINVIVLELKGSETTF[hSer]CEYADETATIVEFLNRWITFSQSIISTLT
modifications: lactam N-31; ends not checked
B12: CMP-301, MMP2 cleaved molecule (ligand)
chain: APTSSSTKKTQLQLEHLLLDLQEILNGINNYKNPKLTR[Nle]L[hSer][Yn3(4)]KF[Ygp(4)][Nle]PKKATELKHLQCLEEELKPLEEVL[hSer]LAQSKNFHLRPRDLISNINVIVLELKGSETTF[hSer]CEYADETATIVEFLNRWITFSQSIISTLT
modifications: not fully specified; ends and bridges not checked; also: cleaved by MMP2, product not given here, N-terminus linked to another sequence via PEG9, Glu23 side chain linked to another sequence
B13: CMP-302 (ligand)
chain: GPLGLAGAPTSSSTKKTQLQLEHLLLDLQEILNGINNYKNPKLTR[Nle]L[hSer][Yn3(4)]KF[Ygp(4)][Nle]PKKATELKHLQCLEEELKPLEEVL[hSer]LAQSKNFHLRPRDLISNINVIVLELKGSETTF[hSer]CEYADETATIVEFLNRWITFSQSIISTLT
modifications: lactam N-30; ends not checked
B14: CMP-303 (ligand)
chain: PLGLAGAPTSSSTKKTQLQLEHLLLDLQEILNGINNYKNPKLTR[Nle]L[hSer][Yn3(4)]KF[Ygp(4)][Nle]PKKATELKHLQCLEEELKPLEEVL[hSer]LAQSKNFHLRPRDLISNINVIVLELKGSETTF[hSer]CEYADETATIVEFLNRWITFSQSIISTLT
modifications: bridge N-29; not fully specified (N-terminus, bridges); ends not checked
B15: CMP-304 (ligand)
chain: PLGLAGAPTSSSTKKTQLQLEHLLLDLQEILNGINNYKNPKLTR[Nle]L[hSer][Yn3(4)]KF[Ygp(4)][Nle]PKKATELKHLQCLEEELKPLEEVL[hSer]LAQSKNFHLRPRDLISNINVIVLELKGSETTF[hSer]CEYADETATIVEFLNRWITFSQSIISTLT
modifications: bridge N-29; not fully specified (N-terminus, bridges); ends not checked
B16: CMP-305 (ligand)
chain: APTSSSTKKTQLQLEHLLLDLQKILNGINNYKNPKLTR[Nle]L[hSer][Yn3]KF[Ygp][Nle]PKKATELKHLQCLEEELKPLEEVL[hSer]LAQSKNFHLRPRDLISNINVIVLELKGSETTF[hSer]CEYADETATIVEFLNRWITFSQSIISTLT
modifications: bridge 15-23; not fully specified (bridges); also: further groups not given here

target: T1, IL-2 receptor βγ complex; assay: cell-based or functional assay

| Average EC50, pSTAT5 Assay (T cells) | Binder |
| --- | --- |
| 0.76 nM | B1 |
| 31.4 nM | B2 |
| 0.61 nM | B3 |
| 57.4 nM | B4 |
| 1.42 nM | B5 |
| 4.36 nM | B6 |
| 176 nM | B7 |
| 5.31 nM | B8 |
| 53.4 nM | B9 |
| 5.39 nM | B10 |
| 180 nM | B11 |
| 0.883 nM | B12 |
| 63.4 nM | B13 |
| 97.9 nM | B14 |
| 110 nM | B15 |
| 128 nM | B16 |
